This assay deals with SARS-CoV nsp7L8 fusion protein (SARS-CoV, UniProt P0C6X7). Briefly: SPR. Background: SPR reads the build-up and loss of mass on a sensor chip optically.

The record followed here is article doi:10.1101/2020.04.23.057265 (bioRxiv, 2020).

B1: SARS-CoV nsp12 polymerase subunit (enzyme)
chain: SADASTFLNRVCGVSAARLTPCGTGTSTDVVYRAFDIYNEKVAGFAKFLKTNCCRFQEKDEEGNLLDSYFVVKRHTMSNYQHEETIYNLVKDCPAVAVHDFFKFRVDGDMVPHISRQRLTKYTMADLVYALRHFDEGNCDTLKEILVTYNCCDDDYFNKKDWYDFVENPDILRVYANLGERVRQSLLKTVQFCDAMRDAGIVGVLTLDNQDLNGNWYDFGDFVQVAPGCGVPIVDSYYSLLMPILTLTRALAAESHMDADLAKPLIKWDLLKYDFTEERLCLFDRYFKYWDQTYHPNCINCLDDRCILHCANFNVLFSTVFPPTSFGPLVRKIFVDGVPFVVSTGYHFRELGVVHNQDVNLHSSRLSFKELLVYAADPAMHAASGNLLLDKRTTCFSVAALTNNVAFQTVKPGNFNKDFYDFAVSKGFFKEGSSVELKHFFFAQDGNAAISDYDYYRYNLPTMCDIRQLLFVVEVVDKYFDCYDGGCINANQVIVNNLDKSAGFPFNKWGKARLYYDSMSYEDQDALFAYTKRNVIPTITQMNLKYAISAKNRARTVAGVSICSTMTNRQFHQKLLKSIAATRGATVVIGTSKFYGGWHNMLKTVYSDVETPHLMGWDYPKCDRAMPNMLRIMASLVLARKHNTCCNLSHRFYRLANECAQVLSEMVMCGGSLYVKPGGTSSGDATTAYANSVFNICQAVTANVNALLSTDGNKIADKYVRNLQHRLYECLYRNRDVDHEFVDEFYAYLRKHFSMMILSDDAVVCYNSNYAAQGLVASIKNFKAVLYYQNNVFMSEAKCWTETDLTKGPHEFCSQHTMLVKQGDDYVYLPYPDPSRILGAGCFVDDIVKTDGTLMIERFVSLAIDAYPLTKHPNQEYADVFHLYLQYIRKLHDELTGHMLDMYSVMLTNDNTSRYWEPEFYEAMYTPHTVLQ
In the case of B1, the binding result was “binds”.
